In assay [1] the target is T1, rhesus monkey LAG-3, clone pa23-5 (cell surface, CHO) (rhesus monkey, UniProt P18627 24-525 (human entry)).
T1 construct: also called CHO-rhesus LAG3
T1 chain: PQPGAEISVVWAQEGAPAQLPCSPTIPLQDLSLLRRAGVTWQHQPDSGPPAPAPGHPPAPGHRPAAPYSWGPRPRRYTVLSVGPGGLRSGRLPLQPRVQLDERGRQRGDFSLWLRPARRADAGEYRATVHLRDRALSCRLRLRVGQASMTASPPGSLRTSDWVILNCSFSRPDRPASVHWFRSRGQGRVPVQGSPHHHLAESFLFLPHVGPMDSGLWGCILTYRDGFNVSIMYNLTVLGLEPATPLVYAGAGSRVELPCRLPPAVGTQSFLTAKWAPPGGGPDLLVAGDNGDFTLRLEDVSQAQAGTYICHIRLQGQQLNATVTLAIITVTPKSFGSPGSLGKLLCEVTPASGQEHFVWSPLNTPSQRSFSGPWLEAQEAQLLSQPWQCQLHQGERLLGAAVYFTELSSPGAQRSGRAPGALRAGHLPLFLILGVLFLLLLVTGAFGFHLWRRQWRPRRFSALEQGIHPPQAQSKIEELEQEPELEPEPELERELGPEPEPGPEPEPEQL
The experiment in a line: flow cytometry, CHO cells expressing rhesus LAG-3. From the text: The cDNA of clone pa23-5 was inserted into an expression construct, which was transfected into CHO-S suspension cells by nucleofection (Amaxa). Rhesus LAG-3 expression by sorted, selection drug-resistant clones was verified by FACS analysis. This clonal CHO cell line over-expressing rhesus LAG-3 was used in similar FACS assays to those described above to measure antibody cross reactivity to the monkey protein. Briefly, the 25F7, 8B7 and 26H10 monoclonal antibodies were serially diluted with cold 1×PFAE buffer (1×PBS+2% FBS, 0.02% sodium azide, 2 mM Na EDTA). For the binding reaction, 50 μl of diluted antibody solution was added to a 50 μl cell suspension containing 2×10⁵ cells and the mixture was incubated on ice for 30 minutes. The cells were processed by the same protocol described above. The analysis of antibody binding was conducted as described above.
On the technique in general: In flow cytometry, cells or beads pass a laser one at a time.

Assay [2] addresses T2, cynomolgus monkey LAG-3 on activated cynomolgus monkey T cells (cynomolgus monkey).
T2 construct: whole, on cells
The experiment in a line: flow cytometry, activated cynomolgus CD4+ T cells. The method, then:
To test the ability of the antibodies to bind to native human LAG-3 on the surface of activated human T cells, resting CD4⁺ T cells were isolated from purified peripheral blood mononuclear cells and subjected to three days of stimulation with a combination of anti-CD3 and anti-CD28 antibodies affixed to polystyrene beads. The 25F7, 8B7 and 26H10 monoclonal antibodies were serially diluted with cold 1×PFAE buffer (1×PBS+2% FBS, 0.02% sodium azide, 2 mM Na EDTA). For the binding reaction, 50 μl of diluted antibody solution was mixed with 50 μl of PE-labeled anti-human CD4 (BD Bioscience, Cat # 555347). Activated T cells were processed by the same protocol described above. The analysis of antibody binding was conducted as described above.
In a separate experiment, the antibodies were tested for binding to cynomolgus monkey LAG-3 using activated cynomolgus monkey T cells. In vitro activation of these monkey T cells was achieved through anti-CD³/anti-CD28 treatment of the T cells by essentially the same protocol described above for the in vitro activation of human T cells, followed by flow cytometry analysis performed as described above for staining of in vitro activated human CD4⁺ T cells.

Assay [3] has as its target T3, recombinant human LAG-3 fusion protein (human, UniProt P18627 23-450).
T3 construct: also called recombinant LAG-3 protein
T3 sequence (looked up): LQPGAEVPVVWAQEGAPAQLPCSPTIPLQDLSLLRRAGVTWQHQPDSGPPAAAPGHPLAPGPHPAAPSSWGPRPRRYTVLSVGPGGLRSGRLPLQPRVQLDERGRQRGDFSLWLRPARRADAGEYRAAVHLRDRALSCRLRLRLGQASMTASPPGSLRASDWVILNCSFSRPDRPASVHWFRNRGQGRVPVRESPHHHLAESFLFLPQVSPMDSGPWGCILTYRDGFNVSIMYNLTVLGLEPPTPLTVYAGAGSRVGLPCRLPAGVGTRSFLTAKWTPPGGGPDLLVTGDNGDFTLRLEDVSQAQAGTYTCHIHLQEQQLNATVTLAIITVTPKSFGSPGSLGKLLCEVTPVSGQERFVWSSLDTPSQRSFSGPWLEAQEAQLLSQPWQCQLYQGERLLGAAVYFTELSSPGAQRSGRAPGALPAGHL
The experiment in a line: BIAcore, antibody captured on anti-CH1, 20 nM LAG-3 fusion protein injected. The protocol: The binding of the 25E3, 25F7, 8B7, 26H10 and 17E5 antibodies to recombinant LAG-3 protein was examined by BIAcore™ using a capture method. The 25E3, 25F7, 8B7, 26H10 and 17E5 antibodies each were captured using anti-CH1, a reagent antibody that is specific towards the heavy chain constant region 1 of human antibody (Zymed, Clone HP6045, Stock conc. 1.0 mg/mL). Anti-CH1 was coated on a CMS chip (BR-1000-14, Research Grade) at high density (9700-11500RUs). The coating was carried out based on the standard immobilization procedure recommended by the manufacturer. The 25E3, 25F7, 8B7, 26H10 or 17E5 purified antibody, with concentrations ranging from 0.5-3 μg/mL, was then captured on the anti-CH1 coated surface at the flow-rate of 10 uL/min for 1 minute. A single concentration of recombinant human LAG-3 fusion protein (20 nM) was injected over captured antibody for 3 minutes at a flow rate of […]. The antigen was allowed to dissociate for 7.5 minutes. The chip surface was regenerated after each cycle with 25 μL, of 25 mM NaOH followed by 30 μL of HBS-EP wash. Isotype controls were run on the chip, and the data used to subtract non-specific binding. All the experiments were carried out on a Biacore 3000 surface plasmon resonance instrument, using BIAcore Control software v 3.2. Data analysis was carried out using BiaEvaluation v3.2 software. The BIAcore results for 25E3, 25F7, 8B7, 26H10 and 17E5 confirm the flow cytometry results that all five antibodies are capable of binding with high affinity to human LAG-3.
In general terms: In SPR one partner is held on a chip, and binding of the other changes the refractive index at the surface.

B1: 26H10 human monoclonal antibody (antibody, IgG1, V domains shown)
VH: QVQLVESGGGVVQPGRSLRLSCAASGFTFSSYGMHWVRQAPGKGLEWVAVIWYDGSNKYYADSVKGRFTISRDNSKNTLYLQMNSLRAEDTAVYYCAREWAVASWDYGMDVWGQGTTVTVSS
VL: not shown
notes: also called 26H10-FITC
For orientation: EC50 means the concentration needed to bring the measured effect to its halfway point. The term Kd denotes the free concentration of one partner at which half of the binding sites on the other are occupied at equilibrium, for simple one-to-one binding. As to B1, the EC50 amounted to 4.68 nM in assay [1] and 5.19 nM in assay [2]. For the same molecule, in assay [3], the Kd was found to be 0.1 nM.

B2: 25F7 human monoclonal antibody (antibody, IgG1, V domains shown)
VH: QVQLQQWGAGLLKPSETLSLTCAVYGGSFSDYYWNWIRQPPGKGLEWIGEINHNGNTNSNPSLKSRVTLSLDTSKNQFSLKLRSVTAADTAVYYCAFGYSDYEYNWFDPWGQGTLVTVSS
VL: EIVLTQSPATLSLSPGERATLSCRASQSISSYLAWYQQKPGQAPRLLIYDASNRATGIPARFSGSGSGTDFTLTISSLEPEDFAVYYCQQRSNWPLTFGQGTNLEIK
notes: also called 25F7-FITC (IgG1 version)
For the molecule B2, the values for the EC50 in assay [1] and in assay [2] were 22.7 nM and 14.2 nM, respectively. For the same molecule, in assay [3], the Kd is 0.47 nM.

B3: 8B7 human monoclonal antibody (antibody, IgG4, V domains shown)
VH: QVQLQQWGAGLLKPSETLSLTCAVYGGSFSGYYWSWIRQPPGKGLEWIGEINHRGNTNCNPSLKSRVTISGDTSKKQFALKLNSVTAADTAVYYCARGYDILTGYYEDSWGPGTLVTVSS
VL: EIVLTQSPATLSLSPGERATLSCRASQSVSSYLAWYQQKPGQAPRLLIYNASNRATGIPARFSGSGSGTDFTLTISSLEPEDFAVYYCQQRSNWPLTFGGGTKVEIK
notes: also called 8B7-FITC
For B3, the results for the EC50 in assay [1] and in assay [2] were 10 nM and 30.4 nM, respectively. Besides, in assay [3], the equilibrium dissociation constant (Kd) was determined as 0.09 nM.

B4: 25E3 human monoclonal antibody (antibody, IgG1, V domains shown)
VH: EVQLVESGGGVVRPGGSLRLSCAASGFTFDDYGMSWVRQAPGKGLEWVSGINWNGGSTYYADSVKGRFTISGDNAKNSLYLQMNSLRAEDTALYYCTTGGYWGQGTLVTVSS
VL: AIQLTQSPSSLSASVGDRVTITCRASQGIRSALAWYQQKPGKAPKLLIYDASSLESGVPSRFSGSGSGTDFTLTISSLQPEDFATYYCQQFNSYPYTFGQGTKLEIK
Regarding B4, the dissociation constant (Kd) in assay [3] was determined as 0.09 nM.

Source of the values: patent US20200231671A1 (E R SQUIBB AND SONS L L C, published 2020).
